Consider four molecules from US20230340142A1 (SUZHOU NEOLOGICS BIOSCIENCE, published 2023).

To fix the notation:
B1: Clone B (antibody, V domains shown)
VH: QGQMQQSGAELVKPGASVKLSCKTSGFTFSSSYISWLKQKPGQSLEWIAWIYAGTGGTSYNQKFTGKAQLTVDTPSSTAYMQFSSLTTEDSAIYYCARHEGKYWYFDVWGAGTTVTVSS
VL: QILLTQSPAIMSASPGEKVTMTCSASSSVSYVHWYQQKPGSSPKPWIYDTSNLASGFPARFSGSGSGTSYSLIISSMEAEDAATYYCHQRSSYPWTFGGGTKLEIK
notes: Mouse hybridoma clone
B2: Clone D (antibody, V domains shown)
VH: EVQLQQSGPELVKPGASMKISCKASGYSFTGYTMNWVKQSHGKNLEWIGLIIPYNGGISYNQKFKDKATLTVDKSSSTAYMELLSLTSEDSAVYYCASLITTAPRDSMDYWGQGTSVTVSS
VL: DIQMTQTTSSLSASLGDRVTISCRASQDISNYLNWYQQKPDGSVKLLIYYTSKLHSGVPSRFSGSGSGTDYSLTISNLEQEDIATYFCQQGDALPWTFGGGTKLEIK
notes: Mouse hybridoma clone
B3: Clone N (antibody, V domains shown)
VH: B2 VH with Y54H, I58T, S77R, I100M
VL: B2 VL with S43T, K53R, E79D, D92A, A93T
notes: Mouse hybridoma clone
B4: Clone C (antibody, V domains shown)
VH: EVQLQQSGADLVKPGASVKLSCTASGFNIKDTYMHWVKQRPEQGLEWIGRIDPANGNTKYDPKFQGKATITTDTSSNTAYLQLSSLTSEDTAVYYCARGLGRWFAYWGQGTLVTVSA
VL: DIVMTQSHKFMSTSVGDRVSITCKASQDVSNAVAWYQQKPGQSPELLIYSASNRYTGVPDRFTGSGSGTDFTFTISSVQAEDLAVYYCQQHDSTPLTFGAGTKLELK
notes: Mouse hybridoma clone

Residue numbers refer to the chain shown, from its start.

The target in one test is T1, human PD-L1 (human, UniProt Q9NZQ7 19-238, limits assumed).
T1 construct: also called hPD-L1
T1 sequence (Q9NZQ7 19-238 limits assumed): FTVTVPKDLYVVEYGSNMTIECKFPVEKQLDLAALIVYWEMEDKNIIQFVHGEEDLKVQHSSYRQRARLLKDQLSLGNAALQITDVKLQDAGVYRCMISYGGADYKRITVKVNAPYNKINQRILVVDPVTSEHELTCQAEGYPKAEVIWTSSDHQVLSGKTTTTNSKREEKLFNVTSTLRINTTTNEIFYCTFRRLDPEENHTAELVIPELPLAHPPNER
As to the kind of experiment: flow cytometry on MDA-MB-231 cells (PD-L1 on the cell surface), PE-labelled secondary antibody, MFI. As to the method:
(§1) Glycosylation differences in cancer cell lines of different tissue origin may affect the binding affinity between PD-L1 antibody and PD-L1. In this study, five cell lines were selected, namely BT20(Breast), mb-231 (Breast), A375(Melanoma), HCC827(Lung), and RKO(Colon). Cells were re-suspended with FACS buffer (1%BSA in PBS), and 50 µl cell suspension per well was added to the 96-well U-bottom plate (Corning, catalog#3795). The purified antibody to be tested was diluted in gradient, then 50 µl was added to each well and incubated at 4° C. for 1 hour. After washing by FACS buffer for three times, the cells were incubated with PE-labeled fluorescent secondary antibody and incubated at 4° C. for half an hour. Cells were washed three times with FACS buffer and resuspended to 200 uL/ well. The fluorescence signal was detected using Canto II flow cytometry (BD).
For orientation: In flow cytometry, cells or beads pass a laser one at a time.
For B1, the “EC50 (read off the curve)” value was around 0.06 µg/mL.
On the same count and under the same terms, as for B2, the figure is around 0.03 µg/mL.
On the same count and under the same terms, to B3 belongs around 0.03 µg/mL; to B4, around 0.03 µg/mL.

The target in a further test is T1, human PD-L1. As to the kind of experiment: flow cytometry on HCC827 cells (PD-L1 on the cell surface), PE-labelled secondary antibody, MFI. On the procedure: as §1
Take B1: the “EC50 (read off the curve)” value is around 0.05 µg/mL.
On the same count and under the same terms, as for B2, the figure is around 0.02 µg/mL; as for B3, around 0.02 µg/mL.
The same measure, in the same setting: as for B4, the figure is around 0.03 µg/mL.

The target in another test is T1, human PD-L1. As to the kind of experiment: flow cytometry on BT20 cells (PD-L1 on the cell surface), PE-labelled secondary antibody, MFI. On the procedure: as §1
Consider B2, for which the half-maximal effective concentration (EC50 (read off the curve)) was around 0.01 µg/mL.
The same measure, in the same setting: as for B3, the figure is around 0.007 µg/mL; as for B4, around 0.02 µg/mL.

For the next test, the target named is T1, human PD-L1. As to the kind of experiment: flow cytometry on RKO cells (PD-L1 on the cell surface), PE-labelled secondary antibody, MFI. On the procedure:
as §1
In the case of B1, the “EC50 (read off the curve)” value was around 0.04 µg/mL.
On the same count and under the same terms, to B2 belongs around 0.02 µg/mL; to B3, around 0.03 µg/mL.
For the molecule B4, the “EC50 (read off the curve)” value was around 0.02 µg/mL.

In a further test the target is T2, human PD-L1 recombinant protein, PD-L1-his (human, UniProt Q9NZQ7 19-238).
T2 construct: also called PD-L1 with a his-tag; not shown: his-tag
T2 sequence (Q9NZQ7 19-238 limits assumed): as above
As to the kind of experiment: Gator BLI; antibody on HFC sensor, PD-L1-his in solution; 1:1 fit. As to the method: PD-L1 antibodies were coupled to the surface of the HFC sensor (Probe Life), and human PD-L1 recombinant protein as the mobile phase was 2 times gradient diluted. The association and dissociation between PD-L1 protein and the antibodies on the surface of the sensor were measured. Specifically, the HFC sensor was prewetted in SD buffer (PBS containing 0.02% Tween-20 and 0.2% BSA) for 5-10 minutes, and then incubated in SD buffer containing antibodies for 1-3 minutes, allowing antibodies to be coupled to the sensor surface. The antibody-coupled HFC sensor was incubated in the SD buffer solution for 1 minute, and then incubated in the buffer solution containing different concentrations of PD-L1-his for 1-5 minutes to measure the association of PD-L1 protein to captured antibody. Finally, the sensor combining the antigen and antibody was incubated in SD buffer for 2-10 minutes to measure PD-L1 protein’s dissociation from sensor. The measured data were fitted using a 1:1 model, and the association rate (Kon) and the dissociation rate (Koff) were calculated. The equilibrium dissociation constant (kD) was calculated by the ratio Koff/Kon.
For B1, the Kd is 5.94 nM, the koff was 0.0006 s⁻¹ and the kon worked out at 101000 M⁻¹ s⁻¹.
Taken in the same sequence, the figures for B2 were 3.68 nM, 0.000826 s⁻¹ and 225000 M⁻¹ s⁻¹.
For B3 the same measures were 3.52 nM, 0.000582 s⁻¹ and 165000 M⁻¹ s⁻¹.
Taken in the same sequence, the figures for B4 were 4.32 nM, 0.00101 s⁻¹ and 234000 M⁻¹ s⁻¹.

For orientation: EC50 (read off the curve) means the concentration that produces a half-maximal response. For orientation: Kd means the constant that tells how readily two partners part at equilibrium. In general, koff refers to a measure of how fast the partners let go of each other. One may read the kon as the rate constant with which the complex forms.
